Experimental data reported in the supplement of paper PMC9732359.
± gives the uncertainty stated by the source.

Assay: protein stability index of a GFP-peptide fusion (yeast GPS) (PSI 1-4); higher = more stable; sorted into four equal gates, so the index is relative within each strain
Outline: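 Yeast carrying a pooled library were grown to mid-log phase in leucine-free medium. Each library plasmid expresses Cherry and has a tiled 17-residue yeast protein peptide fused downstream of GFP. Cells were sorted into four equal gates by GFP/Cherry ratio, and plasmids from each gate were PCR-amplified, Illumina-sequenced and assigned to strains by barcode. Summing, across gates, the read frequency times the gate number gave each peptide's protein stability index.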

Row | Sequence | protein stability index (doa10∆) | protein stability index (pdr5∆) | protein stability index (ubr1∆) | protein stability index (san1∆)
1 | SDGIVLAAERKVTSTLL [PRE9] | 2.39 ± 0.1 | 1.58 ± 0.065 | 1.85 ± 0.075 | –
2 | SDIPKTTVQVAEEAIVN [PRE4] | 2.92 ± 0.12 | 2.72 ± 0.09 | 2.54 ± 0.091 | 1.81 ± 0.28
3 | SDKTIVPTSIQTKRWPT [SIN4] | 2.32 ± 0.059 | 2.6 ± 0.055 | 2.77 ± 0.048 | 2.35 ± 0.054
4 | SDPLTVFSESCSNESFA [SNU114] | 2.83 ± 0.055 | 2.96 ± 0.057 | 2.96 ± 0.038 | 2.58 ± 0.047
5 | SDPQMKVFDTLTRFSHD [RPN1] | – | 2.84 ± 0.15 | 2.94 ± 0.21 | 2.78 ± 0.18
6 | SDRECPKCHSRENVFFQ [RPB9] | 2.88 ± 0.062 | 2.74 ± 0.061 | 2.79 ± 0.04 | 2.47 ± 0.058
7 | SDVLLFQLPTTCVSMAP [RGR1] | 2.25 ± 0.047 | 1.83 ± 0.036 | 1.77 ± 0.028 | 1.87 ± 0.05
8 | SEDSMNVQLRDVIATEP [SMD3] | 2.94 ± 0.1 | 3.36 ± 0.098 | 3.23 ± 0.039 | 3.09 ± 0.065
9 | SEHVFDYFFYFLVLYDV [NUT1] | 2.12 ± 0.039 | 2.06 ± 0.033 | 2.36 ± 0.034 | 2.26 ± 0.045
10 | SEILIISSLMFDEEFDP [IRR1] | 2.5 ± 0.094 | 2.63 ± 0.095 | 2.97 ± 0.07 | 2.67 ± 0.098
11 | SEILSFDPVYTTVITVF [YML103C/NUP188] | 2.08 ± 0.059 | 2.27 ± 0.051 | 1.62 ± 0.048 | 1.6 ± 0.11
12 | SEIWDVSRGQSAVLLET [PRP8] | 2.83 ± 0.16 | 2.65 ± 0.15 | 2.04 ± 0.091 | 3.12 ± 0.26
13 | SELAPIEEHPTVVDAID [IRR1] | – | 3.62 ± 0.19 | 3.05 ± 0.071 | 3.25 ± 0.11
14 | SELLARDIFQEDEENSD [RGR1] | 3.48 ± 0.12 | 3.37 ± 0.12 | 3.27 ± 0.17 | 3.02 ± 0.14
15 | SEMLAKYSDILLKKATK [CDC53] | 2.62 ± 0.078 | 2.44 ± 0.12 | 2.47 ± 0.17 | –
16 | SESGSKLNVDQFISSRQ [POP1] | 3.27 ± 0.058 | 3.37 ± 0.063 | 3.21 ± 0.068 | 3.29 ± 0.055
17 | SESKDSDKPSLPSAVDG [YLR335W/NUP2] | 3.41 ± 0.1 | 3.38 ± 0.1 | 2.95 ± 0.15 | 3.28 ± 0.11
18 | SEVGNCSGSGMGGVSAL [FAS2] | 3.15 ± 0.075 | 3.38 ± 0.064 | 3.31 ± 0.05 | 3.29 ± 0.056
19 | SEYSSEASNTPIEHQFN [PRE7] | 3.16 ± 0.078 | 3.21 ± 0.072 | 3.3 ± 0.1 | 3 ± 0.036
20 | SFLHVDDKLAYIRVNHA [POP8] | 2.67 ± 0.08 | 2.29 ± 0.068 | 2.56 ± 0.061 | 2.21 ± 0.11
21 | SFVHGVVGQLFQIDNDN [SMC2] | 3.11 ± 0.16 | 3.13 ± 0.12 | 3.25 ± 0.13 | 3.13 ± 0.068
22 | SFYRVEKIKKINYHQYI [SSN2] | 1.18 ± 0.081 | 1.36 ± 0.06 | 1.62 ± 0.1 | 1.39 ± 0.2
23 | SGDESNVISSKDWELEA [YDL116W/NUP84] | 3.45 ± 0.08 | 3.36 ± 0.052 | 3.41 ± 0.066 | 3.45 ± 0.06
24 | SGEKIDFLLSDWNKRFS [BRR2] | 2.37 ± 0.061 | 2.72 ± 0.055 | 2.79 ± 0.056 | 2.88 ± 0.067

Row | Sequence | protein stability index (doa10∆) | protein stability index (pdr5∆) | protein stability index (ubr1∆) | protein stability index (san1∆)
25 | SGGEREIQRTMLELLNQ [RPT2] | 3.46 ± 0.15 | 3.74 ± 0.2 | 3.15 ± 0.18 | –
26 | SGGSRNTSESLLVDIQK [SMC2] | 2.59 ± 0.14 | 2.22 ± 0.16 | 1.73 ± 0.13 | 2.33 ± 0.12
27 | SGKLRDYQVQGLNWLIS [ISW2] | 2.58 ± 0.07 | 2.71 ± 0.053 | 2.85 ± 0.039 | 2.33 ± 0.065
28 | SGSTEKAFKICEAAVEI [SIR3] | 2.97 ± 0.11 | 2.71 ± 0.11 | 3.18 ± 0.16 | 2.84 ± 0.15
29 | SGTSVFEVEMILMQQQM [SRP54] | 3.3 ± 0.084 | 3.23 ± 0.071 | 3.22 ± 0.098 | 3.18 ± 0.07
30 | SGVMDKSVLGDGKKHSV [RPO31] | 3.73 ± 0.21 | 3.71 ± 0.28 | – | 3.31 ± 0.2
31 | SGVPRLKEILNVAKNMK [RPO21] | 1.23 ± 0.12 | 1.83 ± 0.12 | 1.4 ± 0.082 | 1.32 ± 0.26
32 | SHHLKADTIDHDELIDS [YGL172W/NUP49] | 3.03 ± 0.063 | 3.25 ± 0.046 | 3.08 ± 0.038 | 3.08 ± 0.042
33 | SHTGLVRKYDLNICRQC [RPS29B] | 2.18 ± 0.052 | 2.51 ± 0.068 | 2.09 ± 0.088 | 1.94 ± 0.092
34 | SHTQNIGHLIKTRFKGS [SMC2] | 2.94 ± 0.11 | 1.98 ± 0.086 | 2.27 ± 0.066 | 1.96 ± 0.13
35 | SHVENLEEKLYQMQSNY [YIL149C/MLP2] | 2.45 ± 0.051 | 2.84 ± 0.05 | 2.86 ± 0.044 | 2.54 ± 0.05
36 | SHVNKYGLIRGLKFASF [PRP8] | 1.83 ± 0.067 | 1.85 ± 0.065 | 1.34 ± 0.03 | 1.91 ± 0.089
37 | SIGKNPFNKPNIETGEN [SWI3] | 3.04 ± 0.055 | 3.03 ± 0.048 | 2.97 ± 0.044 | 2.87 ± 0.037
38 | SIGYETELKKITDKTIK [IRR1] | 3.06 ± 0.07 | 3.12 ± 0.066 | 3 ± 0.082 | 2.99 ± 0.062
39 | SIIQSKQDCVDWFTYSY [BRR2] | 1.58 ± 0.037 | 1.78 ± 0.037 | 1.97 ± 0.033 | 1.69 ± 0.085
40 | SILRKSSPEEPFMSYSP [SNF12] | 2.64 ± 0.074 | 2.74 ± 0.075 | 2.79 ± 0.059 | 2.55 ± 0.088
41 | SILVIVQKILPLSNEVF [SWI1] | 1.37 ± 0.045 | 1.34 ± 0.039 | 1.56 ± 0.037 | 1.3 ± 0.073
42 | SIPPATIETFNEAALVV [RPB5] | 3.09 ± 0.18 | 2.46 ± 0.15 | 3.15 ± 0.13 | 2.02 ± 0.11
43 | SIQDTSTVAKNVSFVLP [YCG1] | 3.21 ± 0.11 | 2.92 ± 0.074 | 3.04 ± 0.054 | 3.29 ± 0.08
44 | SIQEQIQEFQGNPYIEL [SNF5] | 3.16 ± 0.071 | 3.3 ± 0.08 | 3.31 ± 0.059 | 3.49 ± 0.082
45 | SIRSRRPYQVNVLIGGY [PRE1] | 2.34 ± 0.17 | 2.88 ± 0.09 | 3.04 ± 0.1 | 1.71 ± 0.19
46 | SIVGVDLSSAASASGAA [FAS2] | 1.77 ± 0.13 | 1.53 ± 0.11 | 1.62 ± 0.18 | –
47 | SIYDKWTDPNLKSSLAD [RPN1] | 2.99 ± 0.1 | 2.96 ± 0.067 | 3.19 ± 0.054 | 2.88 ± 0.062
